Measurements published in PMC9029033.

target: T1, VPA0041-His (Vibrio parahaemolyticus RIMD 2210633) (UniProt Q87K57); assay: EMSA; details: EMSA: 20 uL, 10 ng probe (15 ng in Fig 5 legend), 1 ug poly(dI:dC), 4 uL 5x binding buffer (10 mM NaCl, 0.1 mM DTT, 0.1 mM EDTA, 10 mM Tris, pH 7.4), 25 C …
T1 sequence: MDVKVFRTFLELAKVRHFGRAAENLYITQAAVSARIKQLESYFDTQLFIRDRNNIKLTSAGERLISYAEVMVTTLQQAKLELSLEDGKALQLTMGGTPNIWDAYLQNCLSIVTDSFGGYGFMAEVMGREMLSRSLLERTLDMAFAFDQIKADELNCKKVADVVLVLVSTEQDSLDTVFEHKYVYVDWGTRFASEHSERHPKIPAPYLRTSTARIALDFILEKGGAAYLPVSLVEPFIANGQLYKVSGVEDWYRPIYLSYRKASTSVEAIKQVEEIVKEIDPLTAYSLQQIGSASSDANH

Row | Sequence | binding
1 | CATCTTAGTCTCCTTAGTTTATCACTATTTCTTTCAGGCCTTGGGATATTCCCTAGTCACTAACTAGAGGCGGTCGCTTGCCACTAATGATTAATTTGAAAATTAAAAATTTTCTAAAAAAGATCAAAATTGATGATTTTTAGTGACTTGCATTCCACTAAGTTGGGGTTTGCTACCGTTTTAGCGTTAGTTTCCGATGTGCTTTGATCGGCATCGTCGACCTGCAGGCA (double strand) [vpa1548 promoter (promoter-1)] | binds
2 | CATGCATCTTTCCTTACAGTCGGCTCGAATACGCCAAGATACAAACAAGATACATCGTCGACCTGCAGGCA (double strand) [vpa0264 promoter-3] | no binding
3 | TGCCTGCAGGTCGACGATAGACATACTTTCAAGGCATAGAGTTACGCCAATTACCAATGAGAGAGGGAGTAAGCTCGTG (double strand) [vpa1550 promoter-4] | binds
4 | TGCCTGCAGGTCGACGATCAAGTCAATGTTTTAAAAGAATATTCAAGTTAGGCACGTATCTTGCGATAAGACATACTTTCAAGGCATAGAGTTACGCCAATTACCAATGAGAGAGGGAGTAAGCTCGTG (double strand) [vpa1550 promoter-3] | binds
5 | TGCCTGCAGGTCGACGATGGAACACATAAGGTGGAAAATACACTTCCTCTCAAATTTAAATAGTATCGCAAGTCAATGTTTTAAAAGAATATTCAAGTTAGGCACGTATCTTGCGATAAGACATACTTTCAAGGCATAGAGTTACGCCAATTACCAATGAGAGAGGGAGTAAGCTCGTG (double strand) [vpa1550 promoter-2] | binds
6 | TGCCTGCAGGTCGACGATGTTTGTCCTGTCGAAAGAATTCCTAATAACAGTATCCACTTTGAGGAAATTAGAGTTTTCCCCCTAATTTTTTTGCTTTCCGTAAACCGGAAGTTTGGTTTCCACTCTTGTTTGTAAGTCATTGATAAATATAAATAAAATTTATGGCACGTATCTTGTTTGTATCTTGGCGTATTCGAGCCGACTGTAAGGAAAGATGCATG (double strand) [vpa0264 promoter] | binds
7 | TGCCTGCAGGTCGACGATTAGAGTTTTCCCCCTAATTTTTTTGCTTTCCGTAAACCGGAAGTTTGGTTTCCACTCTTGTTTGTAAGTCATTGATAAATATAAATAAAATTTATGGCACGTATCTTGTTTGTATCTTGGCGTATTCGAGCCGACTGTAAGGAAAGATGCATG (double strand) [vpa0264 promoter-1] | binds
8 | TGCCTGCAGGTCGACGATTCCACTCTTGTTTGTAAGTCATTGATAAATATAAATAAAATTTATGGCACGTATCTTGTTTGTATCTTGGCGTATTCGAGCCGACTGTAAGGAAAGATGCATG (double strand) [vpa0264 promoter-2] | binds
9 | TGCCTGCAGGTCGACGATTTAGTCGCCTTGTCTTATAGGGAAACACTAGATGTTTTCGAGAGGAAGGCGGAACACATAAGGTGGAAAATACACTTCCTCTCAAATTTAAATAGTATCGCAAGTCAATGTTTTAAAAGAATATTCAAGTTAGGCACGTATCTTGCGATAAGACATACTTTCAAGGCATAGAGTTACGCCAATTACCAATGAGAGAGGGAGTAAGCTCGTG (double strand) [vpa1550 promoter (promoter-1)] | binds
